In patent US20190322724:

Tests used:
[1] = target: WT TIMP-2-His6 tyrosine phosphorylated by c-Src
[2] = target: wild type human TIMP-2 with C-terminal His6 tag (WT TIMP-2-His6)

Chain of TIMP-2 Y90E-His6 (chain, as listed by the source Y90E): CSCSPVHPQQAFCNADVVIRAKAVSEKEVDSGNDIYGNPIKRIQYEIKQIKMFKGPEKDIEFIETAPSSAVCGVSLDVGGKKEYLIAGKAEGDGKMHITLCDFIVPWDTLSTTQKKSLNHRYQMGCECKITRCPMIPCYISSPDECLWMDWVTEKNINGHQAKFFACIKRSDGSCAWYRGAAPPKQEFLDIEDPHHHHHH
Chain of TIMP-2 Y90F-His6 (chain, as listed by the source Y90F): as the sequence (chain, as listed by the source Y90E) above, with E64F counted along it

B1: active 62 kDa MMP-2 (protein)
chain: YNFFPRKPKWDKNQITYRIIGYTPDLDPETVDDAFARAFQVWSDVTPLRFSRIHDGEADIMINFGRWEHGDGYPFDGKDGLLAHAFAPGTGVGGDSHFDDDELWTLGEGQVVRVKYGNADGEYCKFPFLFNGKEYNSCTDTGRSDGFLWCSTTYNFEKDGKYGFCPHEALFTMGGNAEGQPCKFPFRFQGTSYDSCTTEGRTDGYRWCGTTEDYDRDKKYGFCPETAMSTVGGNSEGAPCVFPFTFLGNKYESCTSAGRSDGKMWCATTANYDDDRKWGFCPDQGYSLFLVAAHEFGHAMGLEHSQDPGALMAPIYTYTKNFRLSQDDIKGIQELYGASPDIDLGTGPTPTLGPVTPEICKQDIVFDGIAQIRGEIFFFKDRFIWRTVTPRDKPMGPLLVATFWPELPEKIDAVYEAPQEEKAVFFAGNEYWIYSASTLERGYPKPLTSLGLPPDVQRVDAAFNWSKNKKTYIFAGDKFWRYNEVKKKMDPGFPKLIADAWNAIPDNLDAVVDLQGGGHSYFFKGAYYLKLENQSLKSVKFGSIKSDWLGC
- MMP-2 enzymatic activity on a fluorogenic peptide substrate (TIMP-2 Y90E-His6): phosphomimetic TIMP-2 Y90E inhibitory function correlates with significantly less MMP-2 enzymatic activity
- MMP-2 enzymatic activity on a fluorogenic peptide substrate (TIMP-2 Y90F-His6): non-phosphorylatable Y90F displayed a slightly less MMP-2 inhibitory activity compared the WT TIMP-2
- MMP-2 enzymatic activity on a fluorogenic peptide substrate [1]: phosphoTIMP-2 (pWT) is significantly (˜25 percent) more inhibitory than the non-phosphorylated WT TIMP-2 toward MMP-2
- MMP-2 enzymatic activity on a fluorogenic peptide substrate [2]: as expected WT TIMP-2 acts as an MMP-2 inhibitor
